# In patent US20220332804A1 (CSL INNOVATION, published 2022):
# Where a chain is given by its changes, count along the chain named.
# T1: human C2 G677A (human, UniProt P06681 21-752)
# T1 sequence: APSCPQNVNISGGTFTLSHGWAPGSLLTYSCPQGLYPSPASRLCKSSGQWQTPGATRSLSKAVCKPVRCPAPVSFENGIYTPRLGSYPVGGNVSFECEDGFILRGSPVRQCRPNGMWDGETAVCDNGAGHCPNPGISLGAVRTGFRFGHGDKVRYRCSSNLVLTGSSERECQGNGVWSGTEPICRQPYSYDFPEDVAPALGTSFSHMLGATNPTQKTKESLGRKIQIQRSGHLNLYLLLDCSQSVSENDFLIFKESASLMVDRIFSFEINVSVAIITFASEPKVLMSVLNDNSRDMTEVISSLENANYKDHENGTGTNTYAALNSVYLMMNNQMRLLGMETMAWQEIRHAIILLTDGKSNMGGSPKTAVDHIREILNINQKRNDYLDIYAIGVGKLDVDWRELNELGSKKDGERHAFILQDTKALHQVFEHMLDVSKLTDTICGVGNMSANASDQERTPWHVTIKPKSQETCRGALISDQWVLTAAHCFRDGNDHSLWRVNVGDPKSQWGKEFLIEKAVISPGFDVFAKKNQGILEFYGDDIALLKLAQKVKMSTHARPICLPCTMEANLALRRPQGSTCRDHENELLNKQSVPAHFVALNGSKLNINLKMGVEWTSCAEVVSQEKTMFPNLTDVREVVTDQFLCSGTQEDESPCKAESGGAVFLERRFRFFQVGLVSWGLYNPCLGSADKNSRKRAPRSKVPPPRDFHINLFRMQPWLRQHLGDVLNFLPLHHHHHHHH
# T2: human C2 K443A (human, UniProt P06681 21-752)
# T2 sequence: T1 sequence with K423A, A657G
# T3: human C2 Y702A (human, UniProt P06681 21-752)
# T3 sequence: T1 sequence with A657G, Y682A
# T4: human C2 Y328A (human, UniProt P06681 21-752)
# T4 sequence: T1 sequence with Y308A, A657G
# B1: RF16-226 (antibody, human IgG4 S228P, lambda)
# heavy: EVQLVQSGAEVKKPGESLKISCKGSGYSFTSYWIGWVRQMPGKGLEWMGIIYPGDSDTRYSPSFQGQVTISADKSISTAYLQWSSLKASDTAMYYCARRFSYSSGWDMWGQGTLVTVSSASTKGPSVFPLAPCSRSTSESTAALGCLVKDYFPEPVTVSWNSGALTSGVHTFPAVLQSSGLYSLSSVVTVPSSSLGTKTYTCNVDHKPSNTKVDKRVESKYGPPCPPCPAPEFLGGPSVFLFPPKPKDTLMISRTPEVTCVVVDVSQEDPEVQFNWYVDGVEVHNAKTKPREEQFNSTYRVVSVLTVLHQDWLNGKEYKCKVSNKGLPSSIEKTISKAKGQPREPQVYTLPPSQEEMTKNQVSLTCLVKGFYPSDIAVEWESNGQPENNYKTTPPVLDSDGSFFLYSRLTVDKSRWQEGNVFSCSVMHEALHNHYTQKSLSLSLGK
# light: SYELTQPPSVSVSPGQTARITCSGDALTSKYVAWYQQKSGLAPLLVIYEDTRRPSGIPAKFSGSSSGSVATLTISGAHGDDEADYYCYSTDASGHQRVFGGGTKLTVLSQPKAAPSVTLFPPSSEELQANKATLVCLISDFYPGAVTVAWKADGSPVKAGVETTKPSKQSNNKYAASSYLSLTPEQWKSHRSYSCQVTHEGSTVEKTVAPTECS
# notes: pH-dependent anti-C2 antibody from a phage display library; also called WT
# How the values were obtained:
# Experiment in all cases: SPR, antibody captured, C2 as analyte;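 note: biacore SPR at 37 °C, anti-C2 mAbs captured via goat anti-human IgG on CM5 chips, double-referenced sensorgrams fit to a 1:1 kinetic or steady-state model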
# [1] = biological target: T1, human C2 G677A
# [2] = biological target: T2, human C2 K443A
# [3] = biological target: T3, human C2 Y702A
# [4] = biological target: T4, human C2 Y328A
binder,measurement,setting,value
B1,Kd,[1],8.7 nM
same,binding result,[2],no binding
same,Kd,[3],106 nM
same,Kd,[4],78.4 nM
